Measured values reported in the PETadex activity labels (doi:10.1074/jbc.m109.041285).

Substrate: Acd (paper fig)
Conditions: 30 °C

B1: unnamed (protein)
chain: MSKVDLWQDATAQAELVRSGEISRTELLEATIAHVQAVNPEINAVIIPLFEKARRESELASGPFAGVPYLLKDLTVVSQGDINTSSIKGMKESGYRADHDAYFVQRMRAAGFVLLGKTNTPEMGNQVTTEPEAWGATRNPWNLGRSVGGSSGGSGAAVAAALSPVAHGNDAAGSVRIPASVCGVVGLKPTRGRISPGPLVTDSDNVAGAAHEGLFARSVRDIAALLDVVSGHRPGDTFCAPTASRPYAQGISENPGSLRVGVLTHNPVGDFALDPECAAAARGAAAALAALGHDVNDAYPEALGDRSFLKDYSTIGDVAIAREIERNGELIGRPLTEDDVEWTSWEMVKRADQVTGRAFAACVDELRYYAGKVERWWEAGWDLLILPTVTRQTPEIGELMLAKGTDLEGRQSAFISGSLQMLAFTVPFNVSGQPAISLPIGMSSDGMPIGVQIVAAYGREDLLLQVAAQLEGALPWVARRPQLLNPSRKIPAA
Which results are given for B1?
Km: 3.66 mM; kcat: 9.15 s⁻¹; kcat/Km: 2500 M⁻¹ s⁻¹

B2: unnamed (protein)
chain: MSKVDLWQDATAQAELVRSGEISRTELLEATIAHVQAVNPEINAVIIPLFEKARRESELASGPFAGVPYLLKDLTVVSQGDINTSSIKGMKESGYRADHDAYFVQRMRAAGFVLLGKTNTPEMGNQVTTEPEAWGATRNPWNLGRSVGGSSGGSGAAVAAALSPVAHGNDAAGSVRIPASVCGVVGLKPTRGRISPGPLVTDSDNVAGAAHEGLFARSVRDIAALLDVVSGHRPGDTFCAPTASRPYAQGISENPGSLRVGVLTHNPVGDFALDPECAAAARGAAAALAALGHDVNDAYPEALGDRSFLKDYSTIADVAIAREIERNGELIGRPLTEDDVEWTSWEMVKRADQVTGRAFAACVDELRYYAGKVERWWEAGWDLLILPTVTRQTPEIGELMLAKGTDLEGRQSAFISGSLQMLAFTVPFNVSGQPAISLPIGMSSDGMPIGVQIVAAYGREDLLLQVAAQLEGALPWVARRPQLLNPSRKIPAA
With B2 as the protein, how does the Km read?
Its Km is 0.85 mM.

What about the kcat of the same protein?
Its kcat is 0.71 s⁻¹.

What about the kcat/Km of the same protein?
Its kcat/Km is 835 M⁻¹ s⁻¹.

B3: unnamed (protein)
chain: MSKVDLWQDATAQAELVRSGEISRTELLEATIAHVQAVNPEINAVIIPLFEKARRESELASGPFAGVPYLLKDLTVVSQGDINTSSIKGMKESGYRADHDAYFVQRMRAAGFVLLGKTNTPEMGAQVTTEPEAWGATRNPWNLGRSVGGSSGGSGAAVAAALSPVAHGNDAAGSVRIPASVCGVVGLKPTRGRISPGPLVTDSDNVAGAAHEGLFARSVRDIAALLDVVSGHRPGDTFCAPTASRPYAQGISENPGSLRVGVLTHNPVGDFALDPECAAAARGAAAALAALGHDVNDAYPEALGDRSFLKDYSTICDVAIAREIERNGELIGRPLTEDDVEWTSWEMVKRADQVTGRAFAACVDELRYYAGKVERWWEAGWDLLILPTVTRQTPEIGELMLAKGTDLEGRQSAFISGSLQMLAFTVPFNVSGQPAISLPIGMSSDGMPIGVQIVAAYGREDLLLQVAAQLEGALPWVARRPQLLNPSRKIPAA
With B3 as the protein, how does the Km read?
Its Km is 13.2 mM.

What about the kcat of the same protein?
Its kcat is 1.12 s⁻¹.

What about the kcat/Km of the same protein?
The kcat/Km was 84.8 M⁻¹ s⁻¹.

B4: unnamed (protein)
chain: MSKVDLWQDATAQAELVRSGEISRTELLEATIAHVQAVNPEINAVIIPLFEKARRESELASGPFAGVPYLLKDLTVVSQGDINTSSIKGMKESGYRADHDAYFVQRMRAAGFVLLGKTNTPEMGNQVTTEPEAWGATRNPWNLGRSVGGSSGGSGAAVAAALSPVAHGNDAAGSVRIPASVCGVVGLKPTRGRISPGPLVTDSDNVAGAAHEGLFARSVRDIAALLDVVSGHRPGDTFCAPTASRPYAQGISENPGSLRVGVLTHNPVGDFALDPECAAAARGAAAALAALGHDVNDAYPEALGDRSFLKDYSTICDVAIAREIERNGELIGRPLTEDDVEWTSWEMVKRADQVTGRAFAACVDELRYYAGKVERWWEAGWDLLILPTVTRQTPEIGELMLAKGTDLEGRQSAFISGSLQMLAFTVPFNVSGQPAISLPIGMSSDGMPIGVQIVAAYGREDLLLQVAAQLEGALPWVARRPQLLNPSRKIPAA
For B4, which Km is on record?
Its Km is 3.51 mM.

And the kcat?
The kcat was 4.97 s⁻¹.

What about the kcat/Km of the same protein?
The kcat/Km was 1420 M⁻¹ s⁻¹.

B5: unnamed (protein)
chain: MSKVDLWQDATAQAELVRSGEISRTELLEATIAHVQAVNPEINAVIIPLFEKARRESELASGPFAGVPYLLKDLTVVSQGDINTSSIKGMKESGYRADHDAYFVQRMRAAGFVLLGKTNTPEMGNQVTTEPEAWGATRNPWNLGRSVGGSSGGSGAAVAAALSPVAHGNDAAGSVRIPASVCGVVGLKPTRGRISPGPLVTDSDNVAGAAHEGLFARSVRDIAALLDVVSGHRPGDTFCAPTASRPYAQGISENPGSLRVGVLTHNPVGDFALDPECAAAARGAAAALAALGHDVNDAYPEALGDRSFLKDYSTISDVAIAREIERNGELIGRPLTEDDVEWTSWEMVKRADQVTGRAFAACVDELRYYAGKVERWWEAGWDLLILPTVTRQTPEIGELMLAKGTDLEGRQSAFISGSLQMLAFTVPFNVSGQPAISLPIGMSSDGMPIGVQIVAAYGREDLLLQVAAQLEGALPWVARRPQLLNPSRKIPAA
Which Km does the source give for B5 here?
Its Km is 1.8 mM.

And the kcat?
The kcat was 4.83 s⁻¹.

What about the kcat/Km of the same protein?
Its kcat/Km is 2680 M⁻¹ s⁻¹.

B6: unnamed (protein)
chain: MSKVDLWQDATAQAELVRSGEISRTELLEATIAHVQAVNPEINAVIIPLFEKARRESELASGPFAGVPYLLKDLTVVSQGDINTSSIKGMKESGYRADHDAYFVQRMRAAGFVLLGKTNTPEMGNQVTTEPEAWGATRNPWNLGRSVGGSSGGSGAAVAAALSPVAHGNDAAGSVRIPASVCGVVGLKPTRGRISPGPLVTDSDNVAGAAHEGLFARSVRDIAALLDVVSGHRPGDTFCAPTASRPYAQGISENPGSLRVGVLTHNPVGDFALDPECAAAARGAAAALAALGHDVNDAYPEALGDRSFLKDYSTIDDVAIAREIERNGELIGRPLTEDDVEWTSWEMVKRADQVTGRAFAACVDELRYYAGKVERWWEAGWDLLILPTVTRQTPEIGELMLAKGTDLEGRQSAFISGSLQMLAFTVPFNVSGQPAISLPIGMSSDGMPIGVQIVAAYGREDLLLQVAAQLEGALPWVARRPQLLNPSRKIPAA
Which Km does the source give for B6 here?
The Km was 19 mM.

And the kcat?
Its kcat is 0.14 s⁻¹.

What about the kcat/Km of the same protein?
Its kcat/Km is 7.37 M⁻¹ s⁻¹.
